From publication PMC9482650, “Quantitative fragmentomics allow affinity mapping of interactomes” (Nature Communications, 2022)

Assays:
Test in all cases: holdup assay
Parameters in all cases: key: below the threshold = too weak to quantify, mostly under pKd 3.1 to 4
Conditions in all cases: plain residues with an end cap or a label only (N-terminal biotin on a linker: ttds)
[1] = target: Q70Z35
[2] = target: Q9NR12
[3] = target: Q96JY6
[4] = target: Q5TCQ9
[5] = target: Q6ZWJ1
[6] = target: O60759
[7] = target: Q9NPB6
[8] = target: Q96JB8
[9] = target: Q9C0E4
[10] = target: O00233
[11] = target: Q96FS4
[12] = target: Q9Y3R0
[13] = target: Q13009
[14] = target: Q9P227
[15] = target: Q12923
[16] = target: Q96SB3
[17] = target: O00560
[18] = target: Q9H190
[19] = target: Q9UMS6
[20] = target: O75970
[21] = target: Q13368
[22] = target: O15021
[23] = target: Q8IUC4
[24] = target: Q92614
[25] = target: NHERF4_3, Q86UT5
Sequence of NHERF4_3, Q86UT5 (Q86UT5 325-412): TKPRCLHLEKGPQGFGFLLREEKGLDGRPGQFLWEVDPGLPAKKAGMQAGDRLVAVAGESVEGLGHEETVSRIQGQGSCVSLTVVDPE

[26] = target: Q8TDM6
[27] = target: Q8TB45
[28] = target: T1, LNX2_1, Q8N448
T1 sequence (Q8N448 228-328, limits assumed, looked up): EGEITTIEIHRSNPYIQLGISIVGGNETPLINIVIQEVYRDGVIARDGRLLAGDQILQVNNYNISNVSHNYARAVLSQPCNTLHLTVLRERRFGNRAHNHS

[29] = target: LNX1_4, Q8TBB1
Sequence of LNX1_4, Q8TBB1 (Q8TBB1 631-726): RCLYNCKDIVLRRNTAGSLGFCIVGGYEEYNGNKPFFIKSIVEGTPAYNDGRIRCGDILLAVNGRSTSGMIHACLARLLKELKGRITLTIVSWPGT

Row | Binder | pKd [1] | pKd [2] | pKd [3] | pKd [4] | pKd [5] | pKd [6] | pKd [7] | pKd [8] | pKd [9] | pKd [10] | pKd [11] | pKd [12] | pKd [13] | pKd [14] | pKd [15] | pKd [16] | pKd [17] | pKd [18] | pKd [19] | pKd [20] | further results
1 | STLTIFETAL [ABCC4, O15439] | below the threshold | below the threshold | below the threshold | below the threshold | below the threshold | below the threshold | below the threshold | below the threshold | below the threshold | below the threshold | below the threshold | below the threshold | below the threshold | below the threshold | below the threshold | below the threshold | below the threshold | below the threshold | below the threshold | below the threshold | pKd [21]: below the threshold; pKd [22]: below the threshold; pKd [23]: below the threshold; pKd [24]: below the threshold
2 | QSARYRDTEL [TJP2, Q9UDY2] | below the threshold | below the threshold | below the threshold | below the threshold | below the threshold | below the threshold | below the threshold | below the threshold | below the threshold | below the threshold | below the threshold | below the threshold | below the threshold | below the threshold | below the threshold | below the threshold | below the threshold | below the threshold | below the threshold | below the threshold | pKd [25]: below the threshold; pKd [21]: below the threshold; pKd [22]: below the threshold; pKd [23]: below the threshold; pKd [24]: below the threshold
3 | SVWLRKETRV [CYSLTR2, Q9NS75] | below the threshold | below the threshold | below the threshold | below the threshold | below the threshold | below the threshold | below the threshold | below the threshold | below the threshold | below the threshold | below the threshold | below the threshold | below the threshold | below the threshold | below the threshold | below the threshold | below the threshold | below the threshold | below the threshold | below the threshold | pKd [26]: below the threshold; pKd [27]: below the threshold; pKd [25]: below the threshold; pKd [21]: below the threshold; pKd [22]: below the threshold; pKd [23]: below the threshold; pKd [24]: below the threshold
4 | SRPQRTQTQV [HPV67-E6, A4U7F2] |  |  |  |  |  |  |  |  |  |  |  |  |  |  |  |  |  |  |  |  | pKd [25]: below the threshold
5 | SSRTRRETQL [HPV16-E6, P03126] |  |  |  |  |  |  |  |  |  |  |  |  |  |  |  |  |  |  |  |  | pKd [28]: below the threshold; pKd [25]: 4.13; pKd [29]: below the threshold
6 | RSLEEEESQL [GRASP, Q7Z6J2] | below the threshold | below the threshold | below the threshold | below the threshold | below the threshold | below the threshold | below the threshold | below the threshold | below the threshold | below the threshold | below the threshold | below the threshold | below the threshold | below the threshold | below the threshold | below the threshold | below the threshold | below the threshold | below the threshold | below the threshold | pKd [25]: below the threshold; pKd [21]: below the threshold; pKd [22]: below the threshold; pKd [23]: below the threshold; pKd [24]: below the threshold
7 | PKTPPTDTSV [KIR3DL3, Q8N743] | below the threshold | below the threshold | below the threshold | below the threshold | below the threshold | below the threshold | below the threshold | below the threshold | below the threshold | below the threshold | below the threshold | below the threshold | below the threshold | below the threshold | below the threshold | below the threshold | below the threshold | below the threshold | below the threshold | below the threshold | pKd [21]: below the threshold; pKd [22]: below the threshold; pKd [23]: below the threshold; pKd [24]: below the threshold
